According to patent US20100285526:

Experiments:
[1] = tested on: GST-IL11(A) fusion protein [GST: P08515]
[2] = tested on: GST-IL6 fusion protein [GST: P08515]
[3] = tested on: MBP-IL11 fusion protein [MBP: P0AEX9]
[4] = tested on: GST-Thymosin β4 fusion protein [GST: P08515]
His-IL11 fusion protein = tested on: T1, His-IL11 fusion protein
T1 sequence: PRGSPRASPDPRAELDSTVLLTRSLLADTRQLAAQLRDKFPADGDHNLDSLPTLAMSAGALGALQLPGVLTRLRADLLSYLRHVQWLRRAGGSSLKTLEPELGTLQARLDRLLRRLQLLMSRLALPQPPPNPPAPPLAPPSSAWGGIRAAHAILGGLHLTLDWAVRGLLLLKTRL

[5] = tested on: GST-IL11(LV-) fusion protein [GST: P08515]

Row | Substance | thrombin cleavage of the fusion protein, SDS-PAGE time course [1] | thrombin cleavage of the fusion protein, SDS-PAGE time course [2] | thrombin cleavage of the fusion protein, SDS-PAGE time course [3] | choice of cleavage site within the linker [1] | integrity of released IL-11, MALDI-TOF/MS [1] | integrity of released thymosin β4, MALDI-TOF/MS [4] | thrombin cleavage of the fusion protein, SDS-PAGE time course [4] | thrombin cleavage of the fusion protein, SDS-PAGE time course (His-IL11 fusion protein) | thrombin cleavage of the fusion protein, SDS-PAGE time course [5]
1 | bovine thrombin | The GST fusion partner was efficiently cleaved by both bovine and human thrombin in the concentration ranges and the time points tested | – | – | – | – | – | – | – | –
2 | human thrombin | The GST fusion partner was efficiently cleaved by both bovine and human thrombin in the concentration ranges and the time points tested | – | – | – | – | – | – | – | –
3 | thrombin (species not stated) | – | The fusion protein GST-IL6 (46 kDa) gradually disappeared, and the amount of IL-6 (22 kDa) increased as reaction time passed | The fusion protein MBP-IL11 (60 kDa) gradually disappeared, and the amount of IL11 (18 kDa) increased as reaction time passed | thrombin cleavage occurs not at Arg↓Gly but at Arg↓Ala | it was confirmed that intact IL-11 protein was generated after thrombin cleavage of GST-IL11(A) | it was confirmed that intact thymosin β4 protein was generated after thrombin cleavage of GST-Thymosin β4 | The fusion protein GST-Thymosin β4 (31 kDa) gradually disappeared, and the amount of thymosin β4 (5 kDa) increased as reaction time passed | The fusion protein His-IL11 (22 kDa) gradually disappeared, and the amount of IL11 (18 kDa) increased as reaction time passed | The fusion protein GST-IL11(LV-) (44 kDa) gradually disappeared, and the amount of IL-11(LV-) (18 kDa) increased as reaction time passed
